Earlier results as cited in article PMC11394807.
pKd: −log10 of the molar value. Where two headings read alike, the source gives them in different places.

Assays:
[1] = molecular target: Spike protein (SARS-CoV-2) (UniProt P0DTC2)
[2] = molecular target: Spike protein (SARS-CoV-2) (UniProt P0DTC2); remark: listed apart in the source
[3] = molecular target: Spike protein RBD (SARS-CoV-2) (UniProt P0DTC2)
[4] = molecular target: Spike protein (SARS-CoV-2) (UniProt P0DTC2); remark: listed apart in the source
[5] = molecular target: Spike protein (SARS-CoV-2) (UniProt P0DTC2); remark: listed apart in the source

ASGR1, sequence (P07306 whole entry): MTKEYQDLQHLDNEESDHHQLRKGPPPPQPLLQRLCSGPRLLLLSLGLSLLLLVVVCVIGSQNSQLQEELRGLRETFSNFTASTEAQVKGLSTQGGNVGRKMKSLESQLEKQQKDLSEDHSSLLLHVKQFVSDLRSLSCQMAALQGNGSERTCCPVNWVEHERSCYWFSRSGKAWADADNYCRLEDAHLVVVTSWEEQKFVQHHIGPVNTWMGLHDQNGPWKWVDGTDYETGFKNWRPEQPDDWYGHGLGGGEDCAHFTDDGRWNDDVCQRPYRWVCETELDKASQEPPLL
GRP78, sequence (P11021 19-654): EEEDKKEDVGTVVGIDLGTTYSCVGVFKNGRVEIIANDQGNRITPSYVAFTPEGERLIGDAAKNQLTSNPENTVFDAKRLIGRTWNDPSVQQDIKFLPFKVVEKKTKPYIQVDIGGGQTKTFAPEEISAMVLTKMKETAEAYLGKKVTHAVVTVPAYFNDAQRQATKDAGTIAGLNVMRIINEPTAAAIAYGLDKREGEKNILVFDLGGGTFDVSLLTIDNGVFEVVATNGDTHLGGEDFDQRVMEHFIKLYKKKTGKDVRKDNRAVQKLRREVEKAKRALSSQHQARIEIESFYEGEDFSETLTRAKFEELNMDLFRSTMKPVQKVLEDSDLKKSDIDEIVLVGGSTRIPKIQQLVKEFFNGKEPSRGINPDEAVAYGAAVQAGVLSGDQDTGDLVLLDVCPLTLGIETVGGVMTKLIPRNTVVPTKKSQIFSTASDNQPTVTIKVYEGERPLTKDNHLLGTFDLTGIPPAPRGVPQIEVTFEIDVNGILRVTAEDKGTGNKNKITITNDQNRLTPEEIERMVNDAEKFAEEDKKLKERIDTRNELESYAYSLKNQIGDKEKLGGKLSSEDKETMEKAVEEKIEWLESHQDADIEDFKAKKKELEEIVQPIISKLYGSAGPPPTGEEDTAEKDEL

Substance: ASGR1 (from UniProt P07306)
- pKd [1]: 6.90

Substance: AXL (from UniProt P30530)
- pKd [2]: 6.05

Substance: CD147 (from UniProt P35613)
- pKd [3]: 6.73

Substance: GRP78 (from UniProt P11021)
- pKd [4]: 7.26

Substance: NRP1 (from UniProt O14786)
- pKd [5]: 6.78
